Source: patent US20190369104A1, “P27 TYROSINE PHOSPHORYLATION AS A MARKER OF CDK4 ACTIVITY AND METHODS OF USE THEREOF” (THE RESEARCH FOUNDATION FOR THE STATE UNIVERSITY OF NEW YORK, priority 2016, published 2019)

B1: ALT: small peptide ALT, which contains a portion of Brk's SH3 domain; alternatively-spliced form of Brk (SEQ ID NO: 12) (protein)
chain: MVSRDQAHLGPKYVGLWDFKSRTDEELSFRAGDVFHVARKEEQWWWATLLDEAGGAVAQGYVPHNYLAERETVESEPAGHAGCAALQDLAACRGPAAPERGGVLPQPARACELPQGPEPVPRPAAGRALPEARA
modifications: Alt-Brk
B2: Brk SH3 domain (displayed on phage) (other)
chain: KYVGLWDFKSRTDEELSFRAGDVFHVARKEEQWWWATLLDEAGGAVAQGYVPHNYLAER
notes: also called SH3 domain of Brk
B3: GST-K2 (GST-tagged p27 PxxP peptide K2) (peptide)
chain: DVSGSRPAAPLIGAPA
notes: also called K2 site; not shown: N-terminal GST tag from the pGEX-KG expression vector

What was measured:
[1] = test system: MCF7 cells; assay: Palbociclib inhibitor treatment, viable cell count IC50; type: cell-based; details: Homo sapiens
Protocol: (§1) Cells were seeded on six well plates in duplicate, 5.0×10^4 per well. 24 hours post seeding, one well for each plate was treated with trypsin and counted using the Biorad Automated cell counter. 48 hours post seeding, another well was treated with trypsin and counted and the rest of the wells were treated with Palbociclib (SelleckChem) at 50 nM, 100 nM, 200 nM and 400 nM. DMSO was used as a negative control. Cells were counted again 24 and 48 h post treatment. The IC50 values were determined by normalizing the number of viable cells treated with different concentrations of Palbociclib to the number of viable cells treated with DMSO for each cell line 48 hours post treatment. The number of viable cells treated with DMSO was considered 100%. The log of the viability values was obtained and the data was fitted to a nonlinear regression curve, which was used to generate the IC50 values using Graphpad Prism software.

[2] = test system: HCC1954 cells; assay: as above; type: cell-based; details: Homo sapiens; HCC1954 cells (Rb+)
Protocol: as §1

[3] = test system: MDA MB231 cells; assay: as above; type: cell-based; details: Homo sapiens, MDA-MB-231
Protocol: as §1

[4] = test system: p27 pY88 in MCF7 cells; assay: Dual pY/p27 IHC assay on cell blocks; type: cell-based; set-up: key to pY staining intensity: 0: no pY staining; 1: weak pY staining; 2: moderate pY staining; 3: strong pY staining; details: MCF7 cells treated with 400 nM Palbociclib, 48 h
Protocol: 1×10^12 cells were grown in tissue culture, spun down and fixed in 10% formalin, embedded in paraffin, and then analyzed in the dual pY/p27 IHC assay as described. MCF7 cells were treated with 400 nM Palbociclib for 48 h. before cell block preparation. […] On day 1, slides are labeled with a pencil and baked in an oven at 65° C. for 30 minutes and immediately transferred from the oven to a coplin jar containing Xylene. Slides are rinsed in Xylene 4× for 3 minutes each at room temperature followed by a graded alcohol wash at 100%-95%-75% ethanol 3 times, 3 min each at R.T. Slides were then hydrated by incubation in H2O once for 3 min. After drying, a hydrophobic barrier was created around the tissue using a PAP pen. Endogenous peroxide was blocked by incubating the slides with Peroxide block for 30 min at room temp. The slides were washed with TBS-0.1% Tween 20 3 times for 3 minutes each followed by incubation in 1×PBS for 3 min. After an incubation with a with protein block for 1 h at R.T, P27 [MUT] antibody diluted 1:200 in the DAKO antibody diluent was added to the slides for an overnight incubation at 4° C. On day 2, a 1× solution of antigen retrieval was prepared from 10× stock and it was equilibrated at 100° C. in the water bath. […]

[5] = test system: MCF7-Wt Brk expressing cells; assay: Palbociclib (PD) resistance of Brk-overexpressing cells, IC50; type: cell-based; details: Homo sapiens
Protocol: as §1
Generation of the WT-Brk, KM-Brk, and YF-Brk has been described (Palka-Hamblin H. L. et al., […] J. Cell Sc. 123: 236-45). Amphotropic retroviruses were generated by transfection using Lipofectamine 2000 (Life Technologies 11668-019) of HEK 293 cells with pAmpho envelope and pBabe or pTRE3G tetracycline inducible constructs. Following viral infection of MCF7 cells, stable integrants were isolated by puromycin selection. […]

[6] = test system: ER/PR+, Her2− breast cancer cell lines; assay: ALT (alone or with Palbociclib) in breast cancer cell lines; type: cell-based
Description: To block pY in breast cancer cell lines, we used a small peptide ALT, which contains a portion of Brk's SH3 domain. ALT binds to p27, blocks Brk's association and ability to phosphorylate p27, inhibiting cdk4 and increasing p27's ability to inhibit cdk2. We generated Tetracycline inducible cell lines that expressed ALT and/or engineered a lipid-based nanoparticle delivery vehicle (NP-ALT), permitting us to test ALT as a first generation therapeutic. ALT was also used with Palbociclib to determine if combination therapy reduced drug resistance. pY inhibition comes with a built in biomarker for efficacy and the identification of responsive cell lines and/or future patients. We developed a dual IHC assay for p27 and pY, which we used to analyze both a breast cancer cell line panel previously stratified for Palbociclib sensitivity as well as paraffin-embedded, archival human tumor samples.

[7] = molecular target: T1, recombinantly produced His-tagged p27 (full-length p27) (human, UniProt P46527 1-198); assay: phage-ELISA, SH3 phage on immobilised His-p27 (multivalent phage)
T1 construct: also called p27Kip1; His-p27; not shown: C-terminal histidine tag
Protocol: (§2) Phage supernatants were generated and binding of SH3-phages to recombinantly produced His-tagged-p27 or GST-PxxP-peptides were analyzed as described (Asbach B. et al., (2012) PLoS One 6: e38540).

[8] = molecular target: T2, Yes SH3 domain (displayed on phage) (UniProt P07947 91-152, limits assumed); assay: phage-ELISA on immobilised GST-K2
T2 construct: domain: SH3
Description: (§3) (FIG. 1A) p27 sequence highlighting the proline tracts of the three putative SH3 domain recruitment sites (PxxP): K1 (90-96), K2 (114-117) and K3 (188-195) (SEQ ID NO: 1). Phage-ELISA-analysis of SFK SH3 interactions with p27 (FIG. 1B) or p27's PxxP motifs (FIG. 1C). Data shown is the mean of three independent experiments±standard deviation after normalization and subtraction of the background binding to GST.
as §2

[9] = molecular target: T3, Abl SH3 domain (displayed on phage) (UniProt P00519 61-121, limits assumed); assay: phage-ELISA on immobilised GST-K2
T3 construct: domain: SH3
Description: as §3, §2

[10] = molecular target: B2; assay: phage-ELISA on immobilised GST-K2
Description: as §3, §2

[11] = ER/PR+, Her2− breast cancer cell lines

T2 sequence (P07947 91-152 limits assumed): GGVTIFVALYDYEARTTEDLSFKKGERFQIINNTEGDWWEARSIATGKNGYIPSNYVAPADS
T1 sequence (P46527 whole entry): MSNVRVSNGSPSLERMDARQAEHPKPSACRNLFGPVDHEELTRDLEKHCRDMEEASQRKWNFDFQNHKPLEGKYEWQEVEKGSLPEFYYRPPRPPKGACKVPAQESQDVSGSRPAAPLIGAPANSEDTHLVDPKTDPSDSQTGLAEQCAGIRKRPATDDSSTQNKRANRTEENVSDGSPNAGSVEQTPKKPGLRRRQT
T3 sequence (P00519 61-121 limits assumed): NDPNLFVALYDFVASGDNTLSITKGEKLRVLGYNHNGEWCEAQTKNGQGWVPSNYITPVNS

`CC(=O)c1c(C)c2cnc(Nc3ccc(N4CCNCC4)cn3)nc2n(C2CCCC2)c1=O` [Palbociclib] showed an IC50 [1] of 200 nM, an IC50 [2] of 1000 nM and an IC50 [3] of 400 nM. The “pY staining, % of cells stained” value [4] was 0%, the pY staining intensity ([4]; scale 0-3) was 0 and the IC50 [5] was roughly 600 nM.

B1 was tested, and the cdk2 activity [6, 11] was “blocked”, the cdk4 activity [6, 11] was “blocked” and the pY [6, 11] was “blocked”. For the same molecule, the proliferation [6, 11] was “blocked” and the duration of arrest ([6]; breast cancer cell lines) was greater than 10 days.

Work on B2 yielded a Kd [7] of 250 nM.

B3: no binding [8]; no binding [9]; no binding [10].
